Consider 30 molecules from patent US20200216522A1 (DENALI THERAPEUTICS, published 2020).

Where a chain is given by its changes, count along the chain named.

B1: Clone with H1_2-1 (antibody, V domains shown)
VH: EVQLLESGGGLVQPGGSLRLSCAASGFTFSSVGTSWVRQAPGKGLEWVASISGDGGSYIHYADSVKGRFTISRDNSKNTLYLQMNSLRAEDTAVYYCARLPYWGQGTLVTVSS
VL: DIVMTQSPDSLAVSLGERATINCKSSQSLLNSGNQKNYLTWYQQKPGQPPKLLIYWASTRESGVPDRFSGSGSGTDFTLTISSLQAEDVAVYYCQQYNSYPLTFGQGTKVEIKR
notes: based on hu1C7.v2
B2: Clone with H1_2-2 (antibody, V domains shown)
VH: B1 VH with S31M
VL: B1 VL
notes: based on hu1C7.v2
B3: Clone with L3_5 (antibody, V domains shown)
VH: B1 VH with V32Y, T34M
VL: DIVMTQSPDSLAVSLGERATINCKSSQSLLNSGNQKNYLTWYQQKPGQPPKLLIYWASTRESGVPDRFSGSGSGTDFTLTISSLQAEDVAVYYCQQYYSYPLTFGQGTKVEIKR
notes: based on hu1C7.v2
B4: Clone with H1_4-1 (antibody, V domains shown)
VH: B1 VH with S31G, V32P, T34M
VL: B1 VL
notes: based on hu1C7.v2
B5: Clone with H2_2 (antibody, V domains shown)
VH: B1 VH with V32Y, T34M, D54T
VL: B1 VL
notes: based on hu1C7.v2
B6: Clone with H1_4-5 (antibody, V domains shown)
VH: B1 VH with T28R, S31G, V32Y, T34M
VL: B1 VL
notes: based on hu1C7.v2
B7: Clone with L1_6 (antibody, V domains shown)
VH: B1 VH with V32Y, T34M
VL: B1 VL with N31Q
notes: based on hu1C7.v2
B8: Clone with L1_3-3 (antibody, V domains shown)
VH: B1 VH with V32Y, T34M
VL: DIVMTQSPDSLAVSLGERATINCKSSQSLHYSGTQKDYLVWYQQKPGQPPKLLIYWASTRESGVPDRFSGSGSGTDFTLTISSLQAEDVAVYYCQQYNSYPLTFGQGTKVEIK
notes: based on hu1C7.v2
B9: Clone with H2_4 (antibody, V domains shown)
VH: B1 VH with V32Y, T34M, G55A
VL: B1 VL
notes: based on hu1C7.v2
B10: Clone with H1_2-3 (antibody, V domains shown)
VH: B1 VH with S31Q
VL: B1 VL
notes: based on hu1C7.v2
B11: Clone with L1_3-2 (antibody, V domains shown)
VH: B1 VH with V32Y, T34M
VL: B8 VL with H30L, Y31R
notes: based on hu1C7.v2
B12: Clone with L1_3-6 (antibody, V domains shown)
VH: B1 VH with V32Y, T34M
VL: B8 VL with Y31Q
notes: based on hu1C7.v2
B13: Clone with H1_2-4 (antibody, V domains shown)
VH: B1 VH with S31L
VL: B1 VL
notes: based on hu1C7.v2
B14: Clone with L1_3, L3, and H1_HCv2 (antibody, V domains shown)
VH: B1 VH with S31Q, T34M
VL: B8 VL with Y31R
B15: Clone with H2_3 (antibody, V domains shown)
VH: B1 VH with V32Y, T34M, D54S
VL: B1 VL
notes: based on hu1C7.v2
B16: Clone with L1_5 (antibody, V domains shown)
VH: B1 VH with V32Y, T34M
VL: B1 VL with N31S
notes: based on hu1C7.v2
B17: Clone with H2_6 (antibody, V domains shown)
VH: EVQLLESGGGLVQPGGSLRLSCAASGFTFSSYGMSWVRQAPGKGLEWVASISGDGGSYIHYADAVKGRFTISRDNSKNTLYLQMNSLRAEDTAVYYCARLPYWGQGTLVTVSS
VL: B1 VL
notes: based on hu1C7.v2
B18: Clone with H2_1 (antibody, V domains shown)
VH: B1 VH with V32Y, T34M, D54E
VL: B1 VL
notes: based on hu1C7.v2
B19: Clone with L1_3-5 (antibody, V domains shown)
VH: B1 VH with V32Y, T34M
VL: B8 VL with Y31M
notes: based on hu1C7.v2
B20: Clone with H1_4-4 (antibody, V domains shown)
VH: B1 VH with T28R, V32P, T34M
VL: B1 VL
notes: based on hu1C7.v2
B21: Clone with L1_4 (antibody, V domains shown)
VH: B1 VH with V32Y, T34M
VL: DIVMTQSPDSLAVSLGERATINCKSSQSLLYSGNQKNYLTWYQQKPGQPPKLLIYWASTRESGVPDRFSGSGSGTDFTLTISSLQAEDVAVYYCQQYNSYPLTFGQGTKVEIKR
notes: based on hu1C7.v2
B22: Clone with H1_2-5 (antibody, V domains shown)
VH: B1 VH with S31K
VL: B1 VL
notes: based on hu1C7.v2
B23: Clone with H2_5 (antibody, V domains shown)
VH: B1 VH with V32Y, T34M, D63S
VL: B1 VL
notes: based on hu1C7.v2
B24: Clone with L3_6 (antibody, V domains shown)
VH: B1 VH with V32Y, T34M
VL: B1 VL with N98S
notes: based on hu1C7.v2
B25: Clone with L3_7 (antibody, V domains shown)
VH: B1 VH with V32Y, T34M
VL: B1 VL with S99A
notes: based on hu1C7.v2
B26: Clone with L1_7 (antibody, V domains shown)
VH: B1 VH with V32Y, T34M
VL: B1 VL with S32A
notes: based on hu1C7.v2
B27: Clone with H1_4-2 (antibody, V domains shown)
VH: B1 VH with T28Q, S31G, V32P, T34M
VL: B1 VL
notes: based on hu1C7.v2
B28: Clone with H1_4-3 (antibody, V domains shown)
VH: B1 VH with T28M, S31G, V32P, T34M
VL: B1 VL
notes: based on hu1C7.v2
B29: Clone with L1_3-4 (antibody, V domains shown)
VH: B1 VH with V32Y, T34M
VL: B8 VL with Y31N
notes: based on hu1C7.v2
B30: Clone with L1_3-1 (antibody, V domains shown)
VH: B1 VH with V32Y, T34M
VL: B8 VL with H30V, Y31R
notes: based on hu1C7.v2

T1 sequence (P10636 other isoform, or with tags, fused parts or gaps limits assumed): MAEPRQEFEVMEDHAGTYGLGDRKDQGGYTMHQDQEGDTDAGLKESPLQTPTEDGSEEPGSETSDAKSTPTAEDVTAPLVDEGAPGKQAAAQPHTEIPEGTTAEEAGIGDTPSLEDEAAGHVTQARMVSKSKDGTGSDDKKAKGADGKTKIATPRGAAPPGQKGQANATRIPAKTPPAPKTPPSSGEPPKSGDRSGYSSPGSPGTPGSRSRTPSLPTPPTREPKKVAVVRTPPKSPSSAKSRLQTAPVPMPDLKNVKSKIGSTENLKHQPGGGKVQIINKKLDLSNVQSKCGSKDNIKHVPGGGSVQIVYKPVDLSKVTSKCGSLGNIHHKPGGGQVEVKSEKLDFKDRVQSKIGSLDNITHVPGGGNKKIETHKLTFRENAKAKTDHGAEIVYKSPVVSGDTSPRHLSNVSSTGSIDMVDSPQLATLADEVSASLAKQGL

This test concerns the target T1, full-length human Tau (Tau441; 2N4R), recombinant (human, UniProt P10636 1-758).
T1 construct: made in E. coli, His6-Smt3 tag removed; biotinylated through amines for Octet and phage work; also called r-Tau; recombinant Tau
Nature of the test: SPR Biacore. As for the experimental part: IgG was purified with protein A affinity chromatography. The affinity of each hulC7 IgG variant for r-Tau was determined by surface plasmon resonance using a Biacore™ T200 instrument. Biacore™ Series S CM5 sensor chips were immobilized with monoclonal mouse anti-human IgG (Fc) antibody (Human antibody capture kit from GE Healthcare). Serial 3-fold dilutions of each hulC7 variant were injected at a flow rate of […]. Each sample was analyzed with 3-minute association and 10-minute dissociation. After each injection, the chip was regenerated using 3 M MgCl₂. Binding response was corrected by subtracting the RU from a flow cell capturing an irrelevant IgG at similar density. A 1:1 Languir model of simultaneous fitting of kₒₙ and koff was used for kinetics analysis.
A further round of affinity maturation was performed by mutating certain amino acids in selected CDR-H1, CDR-L1, and CDR-L3 sequences from Table 9A, as well as the sequence of CDR-H2 (SEQ ID NO:23) of hulC7.v2. Sequence changes were identified in each CDR (Table 9B). Binding affinities were evaluated using Biacore™ (Table 10B).
Background: Surface plasmon resonance follows binding to a sensor surface in real time, without labels.
Regarding B1, the equilibrium dissociation constant (Kd) (as a rule, a measure of binding affinity in units of concentration) came out at 1300 pM; the dissociation rate constant (koff) (in general, the first-order rate constant of dissociation) came to 0.000183 s⁻¹; the kon (usually the second-order rate constant of association) was 141000 M⁻¹ s⁻¹.
Take B2: the equilibrium dissociation constant (Kd) was found to be 759 pM, the koff amounted to 9.71e-05 s⁻¹ and the kon is 128000 M⁻¹ s⁻¹.
Taken in the same sequence, the figures for B3 were 928 pM, 0.000787 s⁻¹ and 848000 M⁻¹ s⁻¹.
B4: the Kd was determined as 837 pM, the koff stood at 0.000144 s⁻¹ and the kon amounted to 172000 M⁻¹ s⁻¹.
Turning to B5, the Kd worked out at 9110 pM, the koff turned out to be 0.00378 s⁻¹ and the kon was found to be 415000 M⁻¹ s⁻¹.
B6: the dissociation constant Kd came to 591 pM, the koff worked out at 0.000163 s⁻¹ and the kon was 276000 M⁻¹ s⁻¹.
In the case of B7, the Kd stood at 665 pM, the koff was 0.00078 s⁻¹ and the on-rate constant (kon) was determined as 1.17e+06 M⁻¹ s⁻¹.
B8: the Kd is 78 pM, the koff was determined as 0.000214 s⁻¹ and the kon stood at 2.72e+06 M⁻¹ s⁻¹.
Turning to B9, the equilibrium dissociation constant (Kd) turned out to be 6400 pM, the koff is 0.00309 s⁻¹ and the kon is 484000 M⁻¹ s⁻¹.
Consider B10, for which the Kd was 477 pM, the koff is 9.39e-05 s⁻¹ and the kon came out at 197000 M⁻¹ s⁻¹.
Consider B11, for which the Kd came out at 130 pM, the koff was found to be 0.000143 s⁻¹ and the kon worked out at 1.1e+06 M⁻¹ s⁻¹.
On the same counts, the results for B12 are 349 pM, 0.000379 s⁻¹ and 1.09e+06 M⁻¹ s⁻¹.
Turning to B13, the Kd is 1410 pM, the koff was 0.000151 s⁻¹ and the kon turned out to be 107000 M⁻¹ s⁻¹.
On to B14, for which the Kd worked out at 119 pM, the off-rate constant (koff) came out at 0.000116 s⁻¹ and the kon turned out to be 982000 M⁻¹ s⁻¹.
Taken in the same sequence, the figures for B15 were 9680 pM, 0.00408 s⁻¹ and 422000 M⁻¹ s⁻¹.
Consider B16, for which the Kd was found to be 1390 pM, the dissociation rate constant (koff) was 0.000885 s⁻¹ and the kon was 636000 M⁻¹ s⁻¹.
In the case of B17, the Kd was found to be 3800 pM, the koff is 0.00175 s⁻¹ and the kon stood at 462000 M⁻¹ s⁻¹.
Take B18: the Kd was determined as 8280 pM, the koff turned out to be 0.00369 s⁻¹ and the kon is 446000 M⁻¹ s⁻¹.
Turning to B19, the equilibrium dissociation constant (Kd) turned out to be 419 pM, the koff stood at 0.000442 s⁻¹ and the association rate constant (kon) worked out at 1.05e+06 M⁻¹ s⁻¹.
Turning to B20, the dissociation constant (Kd) was determined as 3810 pM, the koff amounted to 0.00126 s⁻¹ and the association rate constant (kon) stood at 331000 M⁻¹ s⁻¹.
On to B21, for which the Kd came to 577 pM, the koff is 0.000662 s⁻¹ and the kon was found to be 1.15e+06 M⁻¹ s⁻¹.
With B22, the Kd was determined as 578 pM, the koff is 0.000144 s⁻¹ and the kon came out at 249000 M⁻¹ s⁻¹.
On the same counts, the results for B23 are 3790 pM, 0.00176 s⁻¹ and 465000 M⁻¹ s⁻¹.
Take B24: the Kd turned out to be 690 pM, the koff worked out at 0.00057 s⁻¹ and the on-rate (kon) turned out to be 826000 M⁻¹ s⁻¹.
With B25, the Kd stood at 1190 pM, the koff amounted to 0.000817 s⁻¹ and the kon was found to be 685000 M⁻¹ s⁻¹.
Taken in the same sequence, the figures for B26 were 651 pM, 0.000719 s⁻¹ and 1.1e+06 M⁻¹ s⁻¹.
On the same counts, the results for B27 are 416 pM, 0.000128 s⁻¹ and 308000 M⁻¹ s⁻¹.
In the case of B28, the Kd was determined as 502 pM, the koff was determined as 0.000203 s⁻¹ and the kon was 404000 M⁻¹ s⁻¹.
Turning to B29, the Kd stood at 206 pM, the koff was determined as 0.00031 s⁻¹ and the kon was 1.5e+06 M⁻¹ s⁻¹.
Regarding B30, the Kd was determined as 211 pM, the koff came out at 0.000213 s⁻¹ and the on-rate (kon) was 1.01e+06 M⁻¹ s⁻¹.
